Measurements from US20050019801A1, “Stem cell-based methods for identifying and characterizing agents” (Curis, Inc., priority 2003, published 2005).
“Also recorded” adds a separate entry of the source.

B1: dkk1: a Wnt antagonist (protein, UniProt O94907 32-266, looked up)
Dickkopf-related protein 1: TLNSVLNSNAIKNLPPPLGGAAGHPGSAVSAAPGILYPGGNKYQTIDNYQPYPCAEDEECGTDEYCASPTRGGDAGVQICLACRKRRKRCMRHAMCCPGNYCKNGICVSSDQNHFRGEIEETITESFGNDHSTLDGYSRRTTLSSKMYHTKGQEGSVCLRSSDCASGLCCARHFWSKICKPVLKEGQVCTKHRRKGSHGLEIFQRCYCGEGLSCRIQKDHHQASNSSRLHTCQRH
B2: sFRP2: a Wnt antagonist (protein, UniProt Q96HF1 25-295, looked up)
Secreted frizzled-related …: LFLFGQPDFSYKRSNCKPIPANLQLCHGIEYQNMRLPNLLGHETMKEVLEQAGAWIPLVMKQCHPDTKKFLCSLFAPVCLDDLDETIQPCHSLCVQVKDRCAPVMSAFGFPWPDMLECDRFPQDNDLCIPLASSDHLLPATEEAPKVCEACKNKNDDDNDIMETLCKNDFALKIKVKEITYINRDTKIILETKSKTIYKLNGVSERDLKKSVLWLKDSLQCTCEEMNDINAPYLVMGQKQGGELVITSVKRWQKGQREFKRISRSIRKLQC
B3: PTN: a neurotrophic factor (protein, UniProt P21246 33-168, looked up)
Pleiotrophin: GKKEKPEKKVKKSDCGEWQWSVCVPTSGDCGLGTREGTRTGAECKQTMKTQRCKIPCNWKKQFGAECKYQFQAWGECDLNTALKTRTGSLKRALHNAECQKTVTISKPCGKLTKPKPQAESKKKKKEGKKQEKMLD
B4: noggin: a BMP antagonist (protein, UniProt Q13253 28-232, looked up)
Noggin: QHYLHIRPAPSDNLPLVDLIEHPDPIFDPKEKDLNETLLRSLLGGHYDPGFMATSPPEDRPGGGGGAAGGAEDLAELDQLLRQRPSGAMPSEIKGLEFSEGLAQGKKQRLSKKLRRKLQMWLWSQTFCPVLYAWNDLGSRFWPRYVKVGSCFSKRSCSVPEGMVCKPSKSVHLTVLRWRCQRRGGQRCGWIPIQYPIISECKCSC
B5: gremlin: a BMP antagonist (protein, UniProt O60565 25-184, looked up)
Gremlin-1: KKKGSQGAIPPPDKAQHNDSEQTQSPQQPGSRNRGRGQGRGTAMPGEEVLESSQEALHVTERKYLKRDWCKTQPLKQTIHEEGCNSRTIINRFCYGQCNSFYIPRHIRKEEGSFQSCSFCKPKKFTTMMVTLNCPELQPPTKKKRVTRVKQCRCISIDLD

Legend:
[1] = tested on: (HB9-GFP)-mouse embryonic stem cells; test: Motor neuron differentiation of (HB9-GFP)-mouse embryonic stem cell embryoid bodies, GFP by fluorescent or confocal microscopy; format: cell-based; conditions: one day 100 nM RA and 50 ng/ml Sonic hedgehog protein, then three days with agent, fluorescent microscopy
Experimental: Briefly, mouse embryonic stem cells expressing GFP under the control of the HB9 promoter were cultured to confluence, trypsinized, and allowed to reaggregate to form embryoid bodies. The embryoid bodies were treated for one day with 100 nM RA and 50 ng/ml Sonic hedgehog protein. Subsequently, the embryoid bodies were cultured for three days with a previously identified hedgehog, small molecule agonist. Cultured embryoid bodies were analyzed by fluorescent and bright filed microscopy (FIG. 2).
As outlined above, the stem cell based methods of the invention can be used in many ways including, but not limited to, as a primary screen to identify agents that promote differentiation without regard to the mechanism of action; as a primary screen to identify agents that promote differentiation and that may act by agonizing or antagonizing a particular signaling pathway; or as a secondary screen to confirm that an agent that agonizes or antagonizes a particular signaling pathway also functions to promote differentiation along a particular lineage. […] Briefly, several small molecules were previously identified in a screen to identify agonists of the hedgehog signaling pathway. […] Mouse embryonic stem cells expressing GFP under the control of the HB9 promoter were cultured to confluence, trypsinized, and allowed to reaggregate to form embryoid bodies. The embryoid bodies were treated for one day with 100 nM RA and 50 ng/ml Sonic hedgehog protein. Subsequently, the embryoid bodies were cultured for three days with one of three previously identified hedgehog, small molecule agonists. Cultured embryoid bodies were analyzed by fluorescent microscopy for expression of GFP (FIG. 3).
Mouse embryonic stem cells were cultured and treated as described above. Following three days of culture in the presence of the hedgehog agonist, embryoid bodies were analyzed by confocal microscopy to allow analysis of sections throughout the embryoid body. Confocal images were compared to confocal images of embryoid bodies cultured in the absence of hedgehog agonist.
By way of example, known antagonists of BMP signaling include noggin, chordin, follistatin, cerberus, Dan, gremlin, ectodin, sclerostin, and ventroptin. Known antagonists of Wnt signaling include sFRP, WIF, dkk, and Cerberus. Briefly, mouse embryonic stem cells expressing GFP under the control of the HB9 promoter were cultured to confluence, trypsinized, and allowed to reaggregate to form embryoid bodies. The embryoid bodies were treated for one day with 100 nM RA and 50 ng/ml Sonic hedgehog protein. Subsequently, the embryoid bodies were cultured for three days with one of the following: 98 (a small molecule hedgehog agonist), chordin (a BMP antagonist), noggin (a BMP antagonist), gremlin (a BMP antagonist), Dan (a BMP antagonist), PTN (a neurotrophic factor), sFRP2 (a Wnt antagonist), dkk1 (a Wnt antagonist). Cultured embryoid bodies were analyzed by fluorescent microscopy for expression of GFP (FIG. 9).
Embryoid bodies were differentiated as described above for FIG. 9. […] Note, however, the morphological differences among cells types differentiated using each agent. Embryoid bodies treated with a Wnt antagonist were flatter than embryoid bodies treated with a BMP antagonist.

[2] = tested on: Mouse embryonic stem cells (embryoid bodies); test: Combinations of agents promoting motor neuron differentiation from embryoid bodies, HB9 expression; format: cell-based; conditions: agent plus the same sub-threshold concentration of small molecule hedgehog agonist (Ag1.3)
Experimental: BMP antagonists and Wnt antagonists synergized with hedgehog agonists to promote motor neuron differentiation from embryoid bodies. Briefly, mouse embryonic stem cells were cultured, as described above.

Molecule	motor neuron differentiation, as measured by expression of the HB9 promoter-driven transgene (GFP) [1]	motor neuron differentiation, as measured by expression of HB9 [2]	motor neuron differentiation, as measured by expression of the HB9 promoter-driven transgene (GFP) ([1]; listed as sFRP)
B1	robustly promoted motor neuron differentiation; also recorded: differentiated along a motor neuron lineage		
B2	differentiated along a motor neuron lineage	promoted motor neuron differentiation	robustly promoted motor neuron differentiation
B3	robustly promoted motor neuron differentiation		
B4	robustly promoted motor neuron differentiation; also recorded: differentiated along a motor neuron lineage	promoted motor neuron differentiation	
B5	robustly promoted motor neuron differentiation; also recorded: differentiated along a motor neuron lineage	promoted motor neuron differentiation	
